Assays:
Assay in all cases: FRET on MonoMac 6 cells, unstimulated and LPS-stimulated
Hsp70 = biological target: T1, Hsp70 (human, UniProt P0DMV8 2-641)
T1 construct: whole, on cells

CD14 = biological target: T2, CD14 (human, UniProt P08571 20-345)
T2 construct: whole, on cells
T2 sequence (looked up): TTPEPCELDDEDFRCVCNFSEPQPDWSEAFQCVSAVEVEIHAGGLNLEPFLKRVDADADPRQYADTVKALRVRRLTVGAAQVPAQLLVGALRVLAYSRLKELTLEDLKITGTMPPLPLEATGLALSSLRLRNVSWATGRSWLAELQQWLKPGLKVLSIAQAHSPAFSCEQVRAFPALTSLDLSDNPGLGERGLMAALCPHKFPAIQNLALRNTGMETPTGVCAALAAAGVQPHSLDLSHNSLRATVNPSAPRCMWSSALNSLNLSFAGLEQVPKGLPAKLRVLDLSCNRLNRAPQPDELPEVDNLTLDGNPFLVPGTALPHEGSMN

TLR4 = biological target: T3, TLR4 (human, UniProt O00206 24-839)
T3 construct: whole, on cells; also called Toll-like receptor 4

CXCR4 = biological target: T4, CXCR4 (human, UniProt P61073 1-352)
T4 construct: whole, on cells

Measured: binding result

T3 sequence (O00206 24-839): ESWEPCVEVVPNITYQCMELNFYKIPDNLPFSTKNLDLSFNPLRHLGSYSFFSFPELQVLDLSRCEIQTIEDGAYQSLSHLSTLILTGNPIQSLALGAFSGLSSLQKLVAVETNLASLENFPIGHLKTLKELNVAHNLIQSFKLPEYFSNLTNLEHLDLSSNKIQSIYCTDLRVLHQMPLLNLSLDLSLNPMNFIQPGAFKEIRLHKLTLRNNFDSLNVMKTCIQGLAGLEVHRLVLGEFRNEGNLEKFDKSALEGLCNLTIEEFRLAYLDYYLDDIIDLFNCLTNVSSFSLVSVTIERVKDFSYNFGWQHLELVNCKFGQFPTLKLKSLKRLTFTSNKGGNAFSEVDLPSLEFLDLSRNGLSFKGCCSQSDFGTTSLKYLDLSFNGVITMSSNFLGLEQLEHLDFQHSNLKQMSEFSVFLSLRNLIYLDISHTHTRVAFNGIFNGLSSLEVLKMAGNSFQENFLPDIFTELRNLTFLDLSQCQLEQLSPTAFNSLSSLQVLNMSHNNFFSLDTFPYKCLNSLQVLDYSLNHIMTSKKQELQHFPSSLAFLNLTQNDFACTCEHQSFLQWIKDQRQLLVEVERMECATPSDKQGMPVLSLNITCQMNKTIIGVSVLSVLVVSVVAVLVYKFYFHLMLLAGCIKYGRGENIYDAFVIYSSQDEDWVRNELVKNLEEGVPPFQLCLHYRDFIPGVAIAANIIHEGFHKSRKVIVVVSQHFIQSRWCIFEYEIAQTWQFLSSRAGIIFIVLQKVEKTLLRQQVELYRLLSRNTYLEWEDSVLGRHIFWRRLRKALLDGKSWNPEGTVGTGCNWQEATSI
T4 sequence (P61073 whole entry): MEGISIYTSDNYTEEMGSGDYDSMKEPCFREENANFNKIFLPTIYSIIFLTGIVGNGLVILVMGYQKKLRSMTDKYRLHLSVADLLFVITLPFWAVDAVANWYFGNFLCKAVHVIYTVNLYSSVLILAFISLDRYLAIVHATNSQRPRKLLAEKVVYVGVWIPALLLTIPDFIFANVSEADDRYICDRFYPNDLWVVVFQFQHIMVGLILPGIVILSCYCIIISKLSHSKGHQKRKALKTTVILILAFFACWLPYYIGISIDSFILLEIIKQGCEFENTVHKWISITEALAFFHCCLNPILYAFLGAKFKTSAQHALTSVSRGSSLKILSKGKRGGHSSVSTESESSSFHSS
T1 sequence (P0DMV8 2-641): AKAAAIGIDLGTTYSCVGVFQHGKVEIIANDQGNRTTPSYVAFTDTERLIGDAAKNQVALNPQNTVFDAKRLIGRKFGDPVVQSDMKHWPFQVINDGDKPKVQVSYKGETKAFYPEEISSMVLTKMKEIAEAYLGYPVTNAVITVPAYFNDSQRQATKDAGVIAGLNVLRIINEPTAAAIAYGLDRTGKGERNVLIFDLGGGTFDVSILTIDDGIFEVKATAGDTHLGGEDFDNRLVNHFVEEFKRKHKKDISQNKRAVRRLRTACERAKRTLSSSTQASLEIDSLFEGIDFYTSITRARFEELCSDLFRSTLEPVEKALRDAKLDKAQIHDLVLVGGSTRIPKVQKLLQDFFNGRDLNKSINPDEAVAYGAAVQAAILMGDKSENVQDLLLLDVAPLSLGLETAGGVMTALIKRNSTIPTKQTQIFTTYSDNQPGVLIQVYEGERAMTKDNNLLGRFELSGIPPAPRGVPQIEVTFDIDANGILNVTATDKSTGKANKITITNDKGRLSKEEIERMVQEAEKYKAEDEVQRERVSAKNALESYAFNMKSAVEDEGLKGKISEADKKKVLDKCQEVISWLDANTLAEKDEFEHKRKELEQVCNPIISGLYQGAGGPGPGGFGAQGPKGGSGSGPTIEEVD

B1: E. coli GroES (other)
chain: MNIRPLHDRVIVKRKEVETKSAGGIVLTGSAAAKSTRGEVLAVGNGRILENGEVKPLDVKVGDIVIFNDGYGVKSEKIDNEEVLIMSESDILAIVEA
notes: also called E. coli homologue of Cpn10
no binding: all assays above

From patent US20090047240A1 (CBIO, published 2009)
